Target: T1, H4R-Nluc (human, UniProt Q9H3N8-1 1-390)
T1 construct: histamine H4 receptor (H4R), human; Nluc fused in frame to the intracellular C-terminal tail; also called H4R-Nluc/pcDEF3; human H4R-Nluc fusion; source: HEK293T, transiently transfected, in living cells; not shown: NanoLuc (Nluc), C-terminal, kept
Assay: FRET or BRET; saturation BRET in living HEK293T cells; constant H4R-Nluc donor (12.5 ng) with 0-500 ng mVenus-tagged TSPAN4 acceptor plasmid; HBSS, 37 °C; vehicle or 10 µM histamine; one site-specific binding fit
Settings: partners not purified

BRET50 (vehicle) [mVenus/Nluc ratio]	BRET50 (with 10 µM histamine) [mVenus/Nluc ratio]	Binder
0.79	0.92	mVenus-TSPAN4 (natural protein, human, UniProt O14817 2-238, looked up, tetraspanin 4 (TSPAN4), human; start codon replaced by SpeI-NotI sites coding for a TSAAA linker, mVenus at the intracellular N-terminus; also called mVenus-TSPAN4/pcDNA3.1; source: HEK293T, transiently transfected, in living cells (BRET) and in lysate (co-IP); not shown: mVenus (with TSAAA linker), N-terminal, kept) ARACLQAVKYLMFAFNLLFWLGGCGVLGVGIWLAATQGSFATLSSSFPSLSAANLLIITGAFVMAIGFVGCLGAIKENKCLLLTFFLLLLLVFLLEATIAILFFAYTDKIDRYAQQDLKKGLHLYGTQGNVGLTNAWSIIQTDFRCCGVSNYTDWFEVYNATRVPDSCCLEFSESCGLHAPGTWWKAPCYETVKVWLQENLLAVGIFGLCTALVQILGLTFAMTMYCQVVKADTYCA
0.45	0.68	TSPAN4-mVenus (natural protein, human, UniProt O14817 1-238, looked up, tetraspanin 4 (TSPAN4), human; stop codon replaced by SpeI-NotI sites coding for a TSAAA linker, mVenus at the intracellular C-terminus; also called TSPAN4-mVenus/pcDEF3; source: HEK293T, transiently transfected, in living cells; not shown: mVenus (with TSAAA linker), C-terminal, kept) MARACLQAVKYLMFAFNLLFWLGGCGVLGVGIWLAATQGSFATLSSSFPSLSAANLLIITGAFVMAIGFVGCLGAIKENKCLLLTFFLLLLLVFLLEATIAILFFAYTDKIDRYAQQDLKKGLHLYGTQGNVGLTNAWSIIQTDFRCCGVSNYTDWFEVYNATRVPDSCCLEFSESCGLHAPGTWWKAPCYETVKVWLQENLLAVGIFGLCTALVQILGLTFAMTMYCQVVKADTYCA

From PMC8394291, “Identification of TSPAN4 as Novel Histamine H4 Receptor Interactor” (Biomolecules, 2021)
